Here are results for 3 molecules from article PMC3913725 (Cell, 2013).

In general, Kd refers to the free concentration of one partner at which half of the binding sites on the other are occupied at equilibrium, for simple one-to-one binding. Low readings indicate tighter binding, high ones weaker binding.

Common to all, as to assay: pull-down
Test [1] deals with T1, GST-AP-1 core, wild type (murine | human, UniProt P22892 1-595; Q10567 1-584; Q96PC3 1-154; P35585 1-423).
Test [2] deals with T1, GST-AP-1 core, wild type. This is another data set of the same source.
In test [3] the target is T1, GST-AP-1 core, wild type. The source holds these as a separate data set.

T1 sequence (P22892 1-595, chain 1 of 4): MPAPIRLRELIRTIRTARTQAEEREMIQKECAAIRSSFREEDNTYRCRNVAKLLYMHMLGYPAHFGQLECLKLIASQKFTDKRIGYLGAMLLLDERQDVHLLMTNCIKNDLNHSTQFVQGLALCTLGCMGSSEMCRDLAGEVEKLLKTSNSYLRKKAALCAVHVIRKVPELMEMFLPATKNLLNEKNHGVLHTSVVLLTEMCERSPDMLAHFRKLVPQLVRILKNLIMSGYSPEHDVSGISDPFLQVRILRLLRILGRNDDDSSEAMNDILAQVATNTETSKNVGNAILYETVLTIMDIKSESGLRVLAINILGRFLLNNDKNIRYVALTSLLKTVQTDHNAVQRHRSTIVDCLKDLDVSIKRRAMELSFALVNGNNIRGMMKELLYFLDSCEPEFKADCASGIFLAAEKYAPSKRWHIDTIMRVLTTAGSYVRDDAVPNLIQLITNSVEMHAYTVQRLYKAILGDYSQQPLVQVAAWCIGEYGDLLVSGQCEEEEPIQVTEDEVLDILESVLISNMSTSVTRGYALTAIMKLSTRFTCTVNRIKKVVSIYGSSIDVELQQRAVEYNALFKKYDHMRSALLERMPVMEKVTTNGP
T1 sequence (Q10567 1-584, chain 2 of 4): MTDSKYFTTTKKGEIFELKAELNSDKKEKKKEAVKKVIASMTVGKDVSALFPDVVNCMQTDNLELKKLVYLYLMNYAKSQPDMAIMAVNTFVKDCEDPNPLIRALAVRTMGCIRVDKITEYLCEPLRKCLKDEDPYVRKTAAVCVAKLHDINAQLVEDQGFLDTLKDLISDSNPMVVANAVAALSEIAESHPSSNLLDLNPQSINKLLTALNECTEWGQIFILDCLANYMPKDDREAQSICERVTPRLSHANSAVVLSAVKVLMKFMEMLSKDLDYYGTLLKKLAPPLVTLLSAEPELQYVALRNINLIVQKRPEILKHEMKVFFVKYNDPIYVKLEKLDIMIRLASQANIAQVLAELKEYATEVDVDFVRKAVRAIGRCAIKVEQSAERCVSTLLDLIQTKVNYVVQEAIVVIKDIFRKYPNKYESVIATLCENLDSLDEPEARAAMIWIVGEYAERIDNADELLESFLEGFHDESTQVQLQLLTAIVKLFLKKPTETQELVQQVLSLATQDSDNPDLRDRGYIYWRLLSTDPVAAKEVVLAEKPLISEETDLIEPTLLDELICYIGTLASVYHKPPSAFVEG
T1 sequence (Q96PC3 whole entry, chain 3 of 4): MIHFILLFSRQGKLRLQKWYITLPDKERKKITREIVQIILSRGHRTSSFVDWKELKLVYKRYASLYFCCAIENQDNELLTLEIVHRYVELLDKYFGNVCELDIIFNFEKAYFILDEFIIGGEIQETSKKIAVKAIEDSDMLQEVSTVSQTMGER
T1 sequence (P35585 whole entry, chain 4 of 4): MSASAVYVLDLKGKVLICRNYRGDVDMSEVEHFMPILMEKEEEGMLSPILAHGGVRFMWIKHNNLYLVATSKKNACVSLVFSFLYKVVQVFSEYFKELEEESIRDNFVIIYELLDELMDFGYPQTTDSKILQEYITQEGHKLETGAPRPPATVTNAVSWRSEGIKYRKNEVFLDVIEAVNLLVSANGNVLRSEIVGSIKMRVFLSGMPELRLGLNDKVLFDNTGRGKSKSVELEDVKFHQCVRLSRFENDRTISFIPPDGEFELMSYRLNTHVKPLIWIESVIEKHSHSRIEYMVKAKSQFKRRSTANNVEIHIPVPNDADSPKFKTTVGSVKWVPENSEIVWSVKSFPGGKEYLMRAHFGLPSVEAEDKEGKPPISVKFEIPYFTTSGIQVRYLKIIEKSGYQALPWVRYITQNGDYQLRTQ

B1: His6-Arf1^Δ1-16 Q71L, GTP-loaded (domain or fragment)
chain: not shown
Regarding B1, the “fold increase of Arf1 bound with 20 μM VAMP4 peptide, against no peptide” value with GST-AP-1 core, wild type [1] came out at 4 fold. The Kd with GST-AP-1 core, wild type [2] worked out at 20 ± 0.6 µM.

B2: His-Arf1^Δ16-Q71L A136P/A137H (domain or fragment)
chain: not shown
Regarding B2, the binding result with GST-AP-1 core, wild type [3] is “binds”.

B3: His-Arf1^Δ16-Q71L W172D (domain or fragment)
chain: not shown
As for B3, the binding result with GST-AP-1 core, wild type [3] is recorded as “binds”.
